From patent US20060148057A1, “Thioredoxin mutants and uses thereof” (priority 2002, published 2006)

System: BAEC
Experiment: GFP killing assay, TNF+CHX-induced EC death
Type: cell-based, Bovine
Conditions: TNF 10 ng/ml plus CHX 10 μg/ml for 24 h; vector control 25% survival
Method: Trx inhibits ASK1-induced JNK activation and caspase 3 activity. BAEC were co-transfected with ASK1 and Trx constructs in 1:1 ratio as indicated: control vector alone (Ctrl), ASK1 with VC, Trx-WT, Trx-CS, Trx-C32S or Trx-C35S. 24 h post-transfection, cell lysates were used to examine JNK and caspase 3 activity. […] JNK activity was measured by an in vitro kinase assay GST-c-Jun as a substrate. Trx expression was determined by Western blot anti-Flag. […] Caspase 3 activity was measured by Sigma's Caspase 3 Fluorometric Assay Kit in the absence or presence of caspase 3 inhibitor Ac-DEVD-CHO. Assay was performed as duplicates. Caspase 3 activities were normalized with the Ctrl group (as zero). Data are presented from mean of two independent experiments. […] 48 h after transfection, GFP-positive cells were counted as survival cells. […] GFP-positive cells were counted as survival cells. […]
Quantitation of cell killing: Cell killing assay was performed as described previously with a modification (Slowik M R et al. Evidence that tumor necrosis factor triggers apoptosis in human endothelial cells by interleukin-1-converting enzyme-like protease- dependent and -independent pathways. Lab Invest. 77:257-67 (1997)). […] GFP-positive cells were visualized under a fluorescence microscope and counted as number of survival cells. […]

B1: Trx-C35S: C35S single mutant of Trx at the catalytic site, SEQ ID NO:3 (protein)
chain: MVKQIESKTAFQEALDAAGDKLVVVDFSATWCGPSKMIKPFFHSLSEKYSNVIFLEVDVDDCQDVASECEVKCMPTFQFFKKGQKVGEFSGANKEKLEATINELV
  survival after TNF+CHX (GFP-positive cells, Ctrl as 100%): 100±12%
